Test results taken from patent US20240301031A1 (JIANGSU HENGRUI PHARMACEUTICALS, published 2024).
Like-named read-outs stand apart in the source and are kept apart here. Values belong to the binder of their own block, whether it stands above or below them.

Key:
[1] = molecular target: T1, human BAFF (10056-HNCH, Sino biological) (human, UniProt Q9Y275 134-285); test: competition ELISA: biotin-labeled BAFF to coated BAFF-R
T1 construct: Bought protein
Experimental: (§1) The blocking activity of the antibodies and the fusion proteins for receptors and ligands such as BAFF/BAFF-R, BAFF/BCMA, BAFF/TACI, APRIL/BCMA, APRIL/TACI, and p40/IL-12R1 was assayed by the ELISA method. The specific procedures were as follows:
(§2) A receptor protein was diluted to 2 μg/mL with PBS at pH 7.4 (BasalMedia, B320) and added to a 96-well microplate (Corning, 3590) at 100 μL/well. The plate was incubated at 4° C. overnight. After the liquid was discarded, 200 μL of 1% Casein blocking solution (Thermo, 37528) was added to each well for blocking, and the plate was incubated at 37° C. for 2 h. After the blocking was completed, the blocking solution was discarded, and the plate was washed 3 times with a PBST buffer (PBS at pH 7.4 containing 0.1% tween-20) for later use. A biotin-labeled ligand protein at a fixed concentration was mixed with the antibody or fusion protein diluted in gradient, pre-incubated at 37° C. for 30 min, and added to a blocked microplate. The plate was incubated at 37° C. for 1.5 h. After the incubation was completed, the plate was washed 3 times with PBST. 100 μL of streptavidin-HRP (Invitrogen, 434323, diluted at a ratio of 1:4000) was added to each well, and the plate was incubated at 37° C. for 1 h. The supernatant was removed, and the plate was washed 3 times with PBST. 100 μL of TMB chromogenic substrate (KPL, 5120-0077) was added to each well, and the plate was incubated at room temperature for 10-15 min. The reaction was stopped by adding 50 μL of 1 M H₂SO₄ to each well. The plate was read for absorbance values at 450 nm on a microplate reader, the curves for the inhibition of the binding of the ligands to the receptors were fitted with software, and the IC₅₀ values were calculated.

[2] = molecular target: T1, human BAFF (10056-HNCH, Sino biological); test: ELISA, BAFF coated, fusion protein titrated
Experimental: (§3) The binding activity of the antibodies or fusion proteins for BAFF, APRIL, and IL-12/23 p40 was assayed by the ELISA method (coating an antigen protein). The specific procedures were as follows:
(§4) A BAFF (Sino biological, 10056-HNCH), APRIL (R&D Systems, 5860-AP-010/CF), or IL-12/23 p40 (Sino biological, 10052-H08H) protein was diluted to 1 μg/mL with a PBS (BasalMedia, B320) buffer at pH 7.4, and added to a 96-well microplate (Corning, 3590) at 100 μL/well. The plate was incubated at 4° C. overnight. After the liquid was discarded, 300 μL of 5% skim milk (BD, 232100) diluted with PBS was added to each well for blocking, and the plate was incubated at 37° C. for 2 h. After the blocking was completed, the blocking solution was discarded, and the plate was washed 3 times with a PBST buffer (PBS at pH 7.4 containing 0.1% tween-20). 100 μL of test antibody or fusion protein solution diluted in a gradient was added to each well, and the plate was incubated at 37° C. for 1 h. After the incubation was completed, the plate was washed 3 times with PBST. […] The plate was washed 3 times with PBST. 100 μL of TMB chromogenic substrate (KPL, 5120-0077) was added to each well, and the plate was incubated at room temperature for 10-15 min. The reaction was stopped by adding 50 μL of 1 M H₂SO₄ to each well. The plate was read for absorbance values at 450 nm on a microplate reader, the binding curves of the antibodies to an antigen were fitted with software, and the EC₅₀ values were calculated.

[3] = molecular target: T1, human BAFF (10056-HNCH, Sino biological); test: competition ELISA: biotin-labeled BAFF to coated BAFF-R; remark: listed apart in the source
Experimental: as §1, §2

[4] = molecular target: T1, human BAFF (10056-HNCH, Sino biological); test: ELISA, BAFF coated, fusion protein titrated; remark: listed apart in the source
Experimental: as §3, §4

[5] = molecular target: T1, human BAFF (10056-HNCH, Sino biological); test: SPR (Biacore), sample captured on Protein A, antigen flowed, 1:1 fit
[6] = molecular target: T2, human APRIL (5860-AP-010/CF, R&D Systems) (human, UniProt O75888 115-250, limits assumed); test: as above
T2 construct: Bought protein
T2 sequence (looked up): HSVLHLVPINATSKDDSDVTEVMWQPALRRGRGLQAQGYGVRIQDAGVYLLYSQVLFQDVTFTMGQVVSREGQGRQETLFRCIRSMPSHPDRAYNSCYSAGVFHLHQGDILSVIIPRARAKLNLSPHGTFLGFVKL
Experimental: A certain amount of test sample was subjected to affinity capture by a biosensor chip Protein A (GE, 29127556), then antigens at a series of concentration gradients were allowed to flow on the surface of the chip. The reaction signals were detected in real time by using Biacore (GE, 8K) to obtain association and dissociation curves. After the dissociation was completed for each cycle, the biochip was washed and regenerated with a 10 mM glycine-hydrochloric acid solution at pH 1.5 (GE, BR-1003-54). The experimental data were fitted using BIAevaluation version 4.1, GE software with a 1:1 model to obtain affinity values. The related antigen proteins used in this assay are as follows: human IL-23 (CT048-H08H, Sino biological), human IL-12 (CT050-H08H, Sino biological), human BAFF (10056-HNCH, Sino biological), human APRIL (5860-AP-010/CF, R&D Systems), cynomolgus monkey p40 (10215-CL, R&D Systems), cynomolgus monkey BAFF (BAF-CM412B, Kactus), cynomolgus monkey APRIL (APR-CM410B, Kactus), mouse BAFF (BAF-M521y, Acro Biosystems), and mouse APRIL (7907-AP/CF, R&D Systems).

IC50 [1]: 2520 nM
EC50 [2]: 9.8 nM
B1: TACI-21Fc (Fc fusion)
chain: EQGKFYDHLLRDCISCASICGQHPKQCAYFCEDKTHTCPPCPAPEAEGAPSVFLFPPKPKDTLMISRTPEVTCVVVDVSHEDPEVKFNWYVDGVEVHNAKTKPREEQYNSTYRVVSVLTVLHQDWLNGKEYKCKVSNKALPSSIEKTISKAKGQPREPQVYTLPPSRDELTKNQVSLTCLVKGFYPSDIAVEWESNGQPENNYKTTPPVLDSDGSFFLYSKLTVDKSRWQQGNVFSCSVMHEALHNHYTQKSLSLSPGK
notes: Fused directly to Fc; two identical polypeptides

IC50 [1]: 2360 nM
EC50 [2]: 7.19 nM
B2: TACI-20Fc (Fc fusion)
chain: KEQGKFYDHLLRDCISCASICGQHPKQCAYFCEDKTHTCPPCPAPEAEGAPSVFLFPPKPKDTLMISRTPEVTCVVVDVSHEDPEVKFNWYVDGVEVHNAKTKPREEQYNSTYRVVSVLTVLHQDWLNGKEYKCKVSNKALPSSIEKTISKAKGQPREPQVYTLPPSRDELTKNQVSLTCLVKGFYPSDIAVEWESNGQPENNYKTTPPVLDSDGSFFLYSKLTVDKSRWQQGNVFSCSVMHEALHNHYTQKSLSLSPGK
notes: as for B1

IC50 [3]: 2.62 nM
EC50 [2]: 0.584 nM
B3: TACI-11 Fc (Fc fusion)
chain: SLSCRKEQGKFYDHLLRDCISCASICGQHPKQCAYFCENDKTHTCPPCPAPEAEGAPSVFLFPPKPKDTLMISRTPEVTCVVVDVSHEDPEVKFNWYVDGVEVHNAKTKPREEQYNSTYRVVSVLTVLHQDWLNGKEYKCKVSNKALPSSIEKTISKAKGQPREPQVYTLPPSRDELTKNQVSLTCLVKGFYPSDIAVEWESNGQPENNYKTTPPVLDSDGSFFLYSKLTVDKSRWQQGNVFSCSVMHEALHNHYTQKSLSLSPGK
notes: TACI-9 truncated at the C-terminus by 2 amino acids KL, fused directly to Fc; two identical polypeptides

EC50 [4]: 0.12 nM
Kd [5]: 0.081 nM
koff [5]: 1.89e-05 s⁻¹
kon [5]: 234000 M⁻¹ s⁻¹
Kd [6]: 0.0128 nM
koff [6]: 0.000112 s⁻¹
kon [6]: 8.75e+06 M⁻¹ s⁻¹
B4: TACI-9-10Fc (Fc fusion)
chain: SLSCREEQGEFYDHLLRDCISCASICGQHPKQCAYFCENKLDKTHTCPPCPAPEAEGAPSVFLFPPKPKDTLMISRTPEVTCVVVDVSHEDPEVKFNWYVDGVEVHNAKTKPREEQYNSTYRVVSVLTVLHQDWLNGKEYKCKVSNKALPSSIEKTISKAKGQPREPQVYTLPPSRDELTKNQVSLTCLVKGFYPSDIAVEWESNGQPENNYKTTPPVLDSDGSFFLYSKLTVDKSRWQQGNVFSCSVMHEALHNHYTQKSLSLSPGK
notes: TACI-9 with K6E and K10E, fused to Fc; two identical polypeptides

EC50 [4]: 0.0869 nM
Kd [5]: 0.0773 nM
koff [5]: 2.12e-05 s⁻¹
kon [5]: 274000 M⁻¹ s⁻¹
Kd [6]: 0.0125 nM
koff [6]: 9.6e-05 s⁻¹
kon [6]: 7.67e+06 M⁻¹ s⁻¹
B5: TACI-9-15Fc (Fc fusion)
chain: STSCREEQGEFYDHLLRDCISCASICGQHPKQCAAFCENKLDKTHTCPPCPAPEAEGAPSVFLFPPKPKDTLMISRTPEVTCVVVDVSHEDPEVKFNWYVDGVEVHNAKTKPREEQYNSTYRVVSVLTVLHQDWLNGKEYKCKVSNKALPSSIEKTISKAKGQPREPQVYTLPPSRDELTKNQVSLTCLVKGFYPSDIAVEWESNGQPENNYKTTPPVLDSDGSFFLYSKLTVDKSRWQQGNVFSCSVMHEALHNHYTQKSLSLSPGK
notes: two identical polypeptides

IC50 [3]: 2.7 nM
EC50 [2]: 0.561 nM
B6: TACI-10 Fc (Fc fusion)
chain: SLSCRKEQGKFYDHLLRDCISCASICGQHPKQCAYFCENKDKTHTCPPCPAPEAEGAPSVFLFPPKPKDTLMISRTPEVTCVVVDVSHEDPEVKFNWYVDGVEVHNAKTKPREEQYNSTYRVVSVLTVLHQDWLNGKEYKCKVSNKALPSSIEKTISKAKGQPREPQVYTLPPSRDELTKNQVSLTCLVKGFYPSDIAVEWESNGQPENNYKTTPPVLDSDGSFFLYSKLTVDKSRWQQGNVFSCSVMHEALHNHYTQKSLSLSPGK
notes: TACI-9 truncated at the C-terminus by 1 amino acid L, fused directly to Fc; two identical polypeptides

IC50 [1]: 2.22 nM
EC50 [2]: 0.599 nM
B7: TACI-16Fc (Fc fusion)
chain: LSCRKEQGKFYDHLLRDCISCASICGQHPKQCAYFCEDKTHTCPPCPAPEAEGAPSVFLFPPKPKDTLMISRTPEVTCVVVDVSHEDPEVKFNWYVDGVEVHNAKTKPREEQYNSTYRVVSVLTVLHQDWLNGKEYKCKVSNKALPSSIEKTISKAKGQPREPQVYTLPPSRDELTKNQVSLTCLVKGFYPSDIAVEWESNGQPENNYKTTPPVLDSDGSFFLYSKLTVDKSRWQQGNVFSCSVMHEALHNHYTQKSLSLSPGK
notes: as for B1

IC50 [1]: 3.26 nM
EC50 [2]: 0.992 nM
B8: TACI-18Fc (Fc fusion)
chain: CRKEQGKFYDHLLRDCISCASICGQHPKQCAYFCEDKTHTCPPCPAPEAEGAPSVFLFPPKPKDTLMISRTPEVTCVVVDVSHEDPEVKFNWYVDGVEVHNAKTKPREEQYNSTYRVVSVLTVLHQDWLNGKEYKCKVSNKALPSSIEKTISKAKGQPREPQVYTLPPSRDELTKNQVSLTCLVKGFYPSDIAVEWESNGQPENNYKTTPPVLDSDGSFFLYSKLTVDKSRWQQGNVFSCSVMHEALHNHYTQKSLSLSPGK
notes: as for B1

IC50 [1]: 2.82 nM
EC50 [2]: 0.996 nM
B9: TACI-17Fc (Fc fusion)
chain: SCRKEQGKFYDHLLRDCISCASICGQHPKQCAYFCEDKTHTCPPCPAPEAEGAPSVFLFPPKPKDTLMISRTPEVTCVVVDVSHEDPEVKFNWYVDGVEVHNAKTKPREEQYNSTYRVVSVLTVLHQDWLNGKEYKCKVSNKALPSSIEKTISKAKGQPREPQVYTLPPSRDELTKNQVSLTCLVKGFYPSDIAVEWESNGQPENNYKTTPPVLDSDGSFFLYSKLTVDKSRWQQGNVFSCSVMHEALHNHYTQKSLSLSPGK
notes: as for B1

IC50 [1]: 2220 nM
EC50 [2]: 4.99 nM
B10: TACI-19Fc (Fc fusion)
chain: RKEQGKFYDHLLRDCISCASICGQHPKQCAYFCEDKTHTCPPCPAPEAEGAPSVFLFPPKPKDTLMISRTPEVTCVVVDVSHEDPEVKFNWYVDGVEVHNAKTKPREEQYNSTYRVVSVLTVLHQDWLNGKEYKCKVSNKALPSSIEKTISKAKGQPREPQVYTLPPSRDELTKNQVSLTCLVKGFYPSDIAVEWESNGQPENNYKTTPPVLDSDGSFFLYSKLTVDKSRWQQGNVFSCSVMHEALHNHYTQKSLSLSPGK
notes: as for B1
